Read-outs that look alike come from different tables or passages of the source. No end group written: not given here. *: point of attachment. Biotin = O=C1N[C@H]2[C@H](CS[C@H]2CCCCC(=O)*)N1; Ahx = NCCCCCC(=O)O
Legend:
full-length human OGT = molecular target: T1, full-length human OGT (Homo sapiens, UniProt O15294); experiment: OGT inhibition assay; assay type: biochemical
T1 sequence (O15294 1-1046): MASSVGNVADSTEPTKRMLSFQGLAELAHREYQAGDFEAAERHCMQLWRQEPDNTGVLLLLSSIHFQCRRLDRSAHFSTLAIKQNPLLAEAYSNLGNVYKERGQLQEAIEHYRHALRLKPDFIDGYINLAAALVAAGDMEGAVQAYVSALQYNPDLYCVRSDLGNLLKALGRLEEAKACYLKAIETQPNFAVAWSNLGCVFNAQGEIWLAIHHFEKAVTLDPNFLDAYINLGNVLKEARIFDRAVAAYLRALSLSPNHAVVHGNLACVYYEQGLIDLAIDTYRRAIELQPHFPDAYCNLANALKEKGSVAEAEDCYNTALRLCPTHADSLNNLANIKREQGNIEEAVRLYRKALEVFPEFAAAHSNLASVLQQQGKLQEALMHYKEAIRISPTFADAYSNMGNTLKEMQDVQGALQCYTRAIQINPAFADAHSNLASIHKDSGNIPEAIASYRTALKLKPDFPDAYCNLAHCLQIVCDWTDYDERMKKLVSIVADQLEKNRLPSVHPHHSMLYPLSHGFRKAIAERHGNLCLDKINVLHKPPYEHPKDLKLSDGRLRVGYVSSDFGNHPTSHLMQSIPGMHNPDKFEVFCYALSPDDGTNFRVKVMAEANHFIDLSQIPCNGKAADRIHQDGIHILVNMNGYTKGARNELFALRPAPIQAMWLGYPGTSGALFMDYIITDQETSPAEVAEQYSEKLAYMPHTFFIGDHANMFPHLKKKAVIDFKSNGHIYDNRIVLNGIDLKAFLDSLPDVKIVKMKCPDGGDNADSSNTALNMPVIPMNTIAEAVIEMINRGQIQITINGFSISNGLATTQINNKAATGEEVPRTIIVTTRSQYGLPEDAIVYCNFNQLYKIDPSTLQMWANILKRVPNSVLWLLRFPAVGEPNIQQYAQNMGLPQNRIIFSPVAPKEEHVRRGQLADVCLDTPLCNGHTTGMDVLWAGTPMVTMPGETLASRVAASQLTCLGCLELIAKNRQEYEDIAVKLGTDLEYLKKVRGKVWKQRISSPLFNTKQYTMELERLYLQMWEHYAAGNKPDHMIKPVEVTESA

[1] = molecular target: T2, OGT4.5 (crystallizable construct of O-GlcNAc transferase: catalytic region appended to 4.5 TPRs) (human, UniProt O15294 323-1041); experiment: BLI
T2 sequence: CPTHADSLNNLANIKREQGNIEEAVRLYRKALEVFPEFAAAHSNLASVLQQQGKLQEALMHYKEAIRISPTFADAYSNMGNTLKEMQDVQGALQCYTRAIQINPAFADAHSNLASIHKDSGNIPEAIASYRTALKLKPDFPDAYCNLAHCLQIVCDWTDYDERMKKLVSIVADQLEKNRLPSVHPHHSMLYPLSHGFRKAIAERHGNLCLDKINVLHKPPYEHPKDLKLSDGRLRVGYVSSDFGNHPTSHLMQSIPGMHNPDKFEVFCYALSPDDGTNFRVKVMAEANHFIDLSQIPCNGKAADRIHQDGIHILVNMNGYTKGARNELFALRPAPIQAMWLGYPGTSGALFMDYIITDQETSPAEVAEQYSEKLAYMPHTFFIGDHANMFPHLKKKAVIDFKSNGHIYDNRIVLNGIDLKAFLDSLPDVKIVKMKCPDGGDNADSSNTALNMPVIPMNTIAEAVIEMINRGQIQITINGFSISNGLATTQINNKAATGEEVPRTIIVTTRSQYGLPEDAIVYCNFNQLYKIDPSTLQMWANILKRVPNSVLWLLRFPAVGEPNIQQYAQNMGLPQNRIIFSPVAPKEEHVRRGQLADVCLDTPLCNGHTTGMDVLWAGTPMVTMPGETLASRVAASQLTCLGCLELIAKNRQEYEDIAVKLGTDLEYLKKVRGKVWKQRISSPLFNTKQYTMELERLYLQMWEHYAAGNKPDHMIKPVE

[2] = molecular target: T3, O-GlcNAc transferase (OGT), as used in the fluorescence activity assay (human, UniProt O15294 1-1046); experiment: enzyme inhibition kinetics
T3 sequence (looked up): T1 sequence (O15294 1-1046)

[3] = molecular target: T3, O-GlcNAc transferase (OGT), as used in …; experiment: enzyme inhibition kinetics; remark: listed apart in the source
[4] = molecular target: T3, O-GlcNAc transferase (OGT), as used in …; experiment: enzyme inhibition kinetics; remark: listed apart in the source
[5] = molecular target: T2, OGT4.5 (crystallizable construct of …); experiment: crystal structure

DDSDLYSPRYSFSED [repeat 2 of SORB1]
inhibition of OGT (in words) (full-length human OGT): none of these four peptides inhibited OGT

RGLGEFTPLYPMLFG [SCLY]
inhibition of OGT (in words) (full-length human OGT): none of these four peptides inhibited OGT

PEENPYFPTYKFPEL [repeat 1 of SORB1]
inhibition of OGT (in words) (full-length human OGT): none of these four peptides inhibited OGT

PTSKAYSPRYSISDR [SOS1]
inhibition of OGT (in words) (full-length human OGT): none of these four peptides inhibited OGT

{Biotin-Ahx}-GDFPVMFMPKYSIIF [biotinylated peptide P11 (Biotin-Ahx-GDFPVMFMPKYSIIF)]
Kd [1]: 0.47 ± 0.16 µM

GDFPVMFMPKYSIIF [peptide P11]
Ki [2]: 2.7 ± 0.3 µM | Ki [3]: 3.8 ± 0.4 µM | Ki [4]: 4000 ± 900 µM

FMPKYSI [truncated P11 peptide (tP11)]
binding result [5]: binds

Source: paper PMC10589721 (Proceedings of the National Academy of Sciences of the …, 2023)
